Assay results as given in patent publication US10183971B2, “SAA-domain-specific antibodies and peptide antagonists and use thereof to treat inflammatory diseases” (The Feinstein Institute For Medical Research, priority 2013, dated 2019).
Read-outs that look alike come from different tables or passages of the source.

B1: KC: inflammatory mediator, sepsis surrogate marker (protein, UniProt P12850 25-96, looked up)
Growth-regulated alpha protein: APIANELRCQCLQTMAGIHLKNIQSLKVLPSGPHCTQTEVIATLKNGREACLDPEAPLVQKIVQKMLKGVPK
B2: human SAA: human serum amyloid A, recombinant protein (Cat. No. 300-13, PeproTech) (protein)
chain: RSFFSFLGEAFDGARDMWRAYSDMREANYIGSDKYFHARGNYDAAKRGPGGAWAAEVITDARENIQRFFGHGAEDSLADQAANEWGRSGKDPNHFRPAGLPEKY
B3: human SAA1: human SAA1 (Cat. No. 300-53, PeproTech) (protein)
chain: B2 chain

Columns and labels:
[1] = test system: HMGB1 release; assay: HMGB1 release in vitro by inflammatory mediators (data not shown); assay type: cell-based
[2] = test system: Balb/C mice; assay type: in vivo; settings: LPS 5 mg/kg i.p. in combination with SAA 0.8 mg/kg
[3] = test system: murine macrophages; assay: HMGB1 release in murine macrophage cultures (Western blots); assay type: cell-based; settings: 1-10 μg/ml, 16 h
Procedure: (§1) FIG. 4A-4C. […] A, Amino acid sequence of human and murine SAAs (SEQ ID NOS:19-23, top to bottom). B, Western blots of human SAA and SAA1. Note that the anti-HMGB1 IgGs paradoxically cross-reacted with huSAA, but not huSAA1. […] Murine macrophages and human monocytes were stimulated with huSAA or huSAA1 for 16 h, and extracellular HMGB 1 levels were determined by Western blots.
(§2) Overall, there is a >95-98% amino acid sequence homology between members of the human or murine SAA families, and a >75% identity across human and murine families (FIG. 4A), making it seemingly difficult to distinguish between different SAA members by immunoassays. Indeed, the polyclonal antibodies raised against human SAA cross-reacted with both human SAA and SAA1 on Western blots (FIG. 4B, bottom panel). Intriguingly, our rabbit anti-HMGB1 IgGs “specifically” recognized human SAA, but not SAA1, on Western blots (FIG. 4B), implicating a possibility of selectively immunodetecting human SAA with appropriate antibodies.

[4] = test system: human monocytes; assay: HMGB1 release in human monocyte cultures (Western blots); assay type: cell-based; settings: 1-10 μg/ml, 16 h
Procedure: as §1, §2

Molecule | induction of HMGB1 release in vitro [1] | effect on LPS-induced animal lethality ([2]; listed as Recombinant SAA protein) | effect on LPS-induced animal lethality ([2]; listed as SAA) | induction of HMGB1 release [3] | induction of HMGB1 release ([3]; listed as HuSAA) | induction of HMGB1 release [4] | induction of HMGB1 release ([4]; listed as HuSAA)
B1 | unable to induce HMGB1 release | – | – | – | – | – | –
B2 | – | dramatically exacerbated | exacerbated LPS-induced animal lethality | effectively induced HMGB1 release | induced HMGB1 release | effectively induced HMGB1 release | induced HMGB1 release
B3 | – | – | – | barely triggered HMGB1 release | – | barely triggered HMGB1 release | –
